# Measurements taken from US20100137190A1, “LIQUID COMPOSITION FOR EXTERNAL APPLICATION AND PREPARATION FOR EXTERNAL APPLICATION FOR TREATMENT OF SKIN ULCER” (priority 2006, published 2010).
# “Also recorded” adds a separate entry of the source.
# System: ulcer model of delayed skin wound healing (60 sec ethanol exposure model)
# Experiment: Healing effect of GM-CSF external agent on intractable skin ulcer
# Type: in vivo
# Procedure: By using a C57BL/6 mouse, an ulcer model of delayed skin wound healing as an intractable skin ulcer model was produced. Specifically, full thickness dorsal skin tissue with a size of 2×1.5 cm of a C57BL/6 mouse was excised, whereby the fascia was exposed with almost no bleeding. Then, the wound area was completely covered with cotton which had been sufficiently soaked in 70% ethanol, whereby ethanol exposure for 30 sec, 60 sec, 300 sec and 600 sec was carried out. After that, the wound area was air-dried, and the area of the wound area was measured (day 0). 7 days after completion of the experiment, the area of the wound area was measured, which was compared with the area of the wound area on day 0, and a change in the area of the wound area was examined. As a result, the shrinkage of the wound area was reduced as the time of ethanol exposure was increased, and the shrinkage hardly occurred by the 300 sec exposure. Incidentally, the mouse subjected to 600 sec ethanol exposure died at 3 days after the experiment due to deterioration of systemic symptoms. In the case where the time of ethanol exposure was short such as 30 sec exposure or 60 sec exposure, the healing was delayed because the tissue around the wound area directly received degenerative damage due to ethanol, however, granulation tissue was formed in the wound area in one week after the ethanol exposure, and the wound area was covered with epidermal tissue in about 3 weeks and the healing was completed. The 60 sec exposure was to be a factor of delaying the shrinkage of the wound area, but there was no systemic symptom and its effect was sufficient, therefore, this mouse was adopted as an ulcer model of delayed skin wound healing.
# As GM-CSF, a mouse-derived recombinant (R&D System) was used. A solution obtained by dissolving this GM-CSF in an atelocollagen solution at a concentration of 20 μg/100 μL was applied to an affected area of the above-mentioned ulcer model of delayed skin wound healing (60 sec ethanol exposure model) and coagulated, and evaluation was performed in the healing process for 7 days. Further, a group in which only an atelocollagen solution (a 3 mg/mL hydrochloric acid solution) was applied to the affected area and coagulated was used as a control. […] When the shrinkage of the wound area after 7 days was examined, the relative area of the wound area in the GM-CSF administration group was larger by about 15% than that of the control group, and the shrinking action of natural healing of a wound area was inhibited, and the wound area was exacerbated.
molecule,measurement,setting,value
"GM-CSF: granulocyte macrophage colony stimulating factor, mouse-derived recombinant (R&D System), dissolved in atelocollagen solution (protein, UniProt P01587 18-141, looked up) Granulocyte-macrophage …: APTRSPITVTRPWKHVEAIKEALNLLDDMPVTLNEEVEVVSNEFSFKKLTCVQTRLKIFEQGLRGNFTKLKGALNMTASYYQTYCPPTPETDCETQVTTYADFIDSLKTFLTDIPFECKKPGQK","histology / symptoms of the wound area (edema, swelling)","20 μg/100 μL in atelocollagen solution, 7-day period",edema was noted
same,thickness of granulation tissue compared with control group,"20 μg/100 μL in atelocollagen solution, 7 days",slightly thicker
same,"relative area of the wound area, larger than that of the control group","20 μg/100 μL in atelocollagen solution, after 7 days, control atelocollagen only",about 15%
same,wound healing effect on intractable skin ulcer (overall finding),external application,does not have an effect on intractable skin ulcers; also recorded: does not have a wound healing accelerating effect
